A short description of the series: soluble on expression in E. coli; label from the status in PepcDB or PDB records.
Turning to “VIRRSSLSSTESEIRMDATTVSTTDDIWSPSWDDPFEPTTDHDDEFAELTDALRAVQEAVTRSRPTPEAAGRAARTLRDLAARLAAFEVGEDEQISGRRWDLAGRGQTLTPALHLDEVTENRARGHVVVGRFHSGRYAMNGGVTPLIFDEILARLANSCGRPWARTAYLHVNYRAPAPLDVELRVEAEFAGQDGRKRFMRGAMYHGDVLVADVEGLWIELKPEQTQNVSLAVGWGAEENS”, the “soluble on expression in E. coli” value is given as “not soluble”.

On to “LGLWPVHRLSEEARRISPRQLSQRLQLSPLPAELRELVGAFNGALDRLEQAYVRLESFNADVAHELRTPLTNLIGQTQVALSRERSGEHYEEVLQSNLEELERLRAIVNDMLFLARADQGRLACEREETSLAGEIATTVDFLEVIFDEAGVGIEVRGEARALVERALFQRAVTNLLYNAAQHTAAGGTLRVGVERRGDEVRVAVSNPGVPIADEHRRHLFERFYRVDAARSNSEANHGLGLSIVKAVASMHGGSVFVDSADGWNTFGFTVLSPERRGPGDR”, for which the “soluble on expression in E. coli” value is given as “not soluble”.

For “STGVPATDLQQSIMKNVQPIELYFDNELVTDCSALGVYDNSYLVPLHLFEFDFDTIVLGGRHYKKAECEKVEFELEVNGDMVSSDACLLRVPSGPKVRNIVHLFTNEIELKKMTQVTGIMNSPHQARTVFFGSFLTVRKSILTSDGTVMPNVLSYAAQTSRGYCGAAIVAGSPARIIGIHSAGTGSVAFCSLVSKDALERTLPQKQ”, the “soluble on expression in E. coli” value is on record as “not soluble”.

For the sequence “MGSDKIHHHHHHMPRHDDPRYFPISPLLIVPQALGSFSVFIRKDERLILYAKAGETFTERHSRRLHENGTSEVYVRVDQRQNFGLYLERHLAHILEDDRLPVEHRASAFHCATTELLRDTFGTRLPAPVDGILFERLQSLVTMSLRFLCEQGTLKALGQLLDCDFSAYSHSVNVYALTVPLLARLGYAQTDLVRTGLGVLLHDIGLARLPRAITRHRHSLTKHEEHIYRTHPTLGVGLVAQVPLSQEALHCIMLHHERLDGSGFPAGVKDENIPTAVRALAIADTYDLLTTAPGEARLTPFMALQLMRSEHHSTLDLYLLREFITMLSDAEMAGVWPDTLR”, the “soluble on expression in E. coli” value was “not soluble”.

“MKVEELAESISSYAVGILKEEGIEELFPPQAEAVEKVFSGKNLLLAMPTAAGKTLLAEMAMVREAIKGGKSLYVVPLRALAGEKYESFKKWEKIGLRIGISTGDYESRDEHLGDCDIIVTTSEKADSLIRNRASWIKAVSCLVVDEIHLLDSEKRGATLEILVTKMRRMNKALRVIGLSATAPNVTEIAEWLDADYYVSDWRPVPLVEGVLCEGTLELFDGAFSTSRRVKFEELVEECVAENGGVLVFESTRRGAEKTAVKLSAITAKYVENEGLEKAILEENEGEMSRKLAECVRKGAAFHHAGLLNGQRRVVEDAFRRGNIKVVVATPTLAAGVNLPARRVIVRSLYRFDGYSKRIKVSEYKQMAGRAGRPGMDERGEAIIIVGKRDREIAVKRYIFGEPERITSKLGVETHLRFHSLSIICDGYAKTLEELEDFFADTFFFKQNEISLSYELERVVRQLENWGMVVEAAHLAPTKLGSLVSRLYIDPLTGFIFHDVLSRMELSDIGALHLICRTPDMERLTVRKTDSWVEEEAFRLRKELSYYPSDFSVEYDWFLSEVKTALCLKDWIEEKDEDEICAKYGIAPGDLRRIVETAEWLSNAMNRIAEEVGNTSVSGLTERIKHGVKEELLELVRIRHIGRVRARKLYNAGIRNAEDIVRHREKVASLIGRGIAERVVEGISVKSLNPESAAALEHHHHHH”: the “soluble on expression in E. coli” value is recorded as “soluble”.

As to “MGSDKIHHHHHHMHGKLVEVADGVYAYIQGRGEWFVNNAGLIVGEEFSVVVDSVCNEQRAKEMISQFREVTAKDFRILINTHGHPDHVWTNHLFDAVAVAHEMGRQETLMAFVEIYQSLFPDLDFSGAKITPQNITFESRMKLYNDAEMQIIHPGVAHTRGDCYIYIPQKKVVFCGDLLFAKPCTPLAVGGSVRGSVNALRELLNLDAKIYVPGHGGLAGEEHLVEAIEYFEFVWEEAKKRHERGMGWYEAAMDIDLGEYAKWSEAERIVGNVARAYAEIEGRELEFAELVEVARKMLEYGGGRK”, the “soluble on expression in E. coli” value is on record as “not soluble”.

Take “MKETCDLLAFGAHPDDVEIGMGGTIAKYVRRGYRIVICDLTQAELSSNGTVDERQREAAEAARRLGVSERFNLGLPDRGLYVEEEAIRQIAAVIRRYRPRLVFAPYWEDRHPDHGRCARLVEEAVFSAGIRRYGAGELGDAHRVRAVYYYMINAFCRPHFLIDISETINDKLDSLRAYESQFQKRPGSVDTPLTNGYIEMIESRERWFGQQIGAAYAEGFLTKTPIHLSNLFEEER”: the “soluble on expression in E. coli” value is listed as “soluble”.

“MSLKTTTSSTPSDRITWVRISSCYLPLATPISDAKVLTGRQKPMTEIAILFAEIETAGGHQGLGFSYSKRAGGPGQFAHAREIAPALIGEDPSDIAKLWDKLCWAGASAGRSGLSTQAIGAFDVALWDLKAKRAGLSLAKLLGSYRDSVRCYNTSGGFLHTPIDQLMVNASASIERGIGGIKLKVGQPDGALDIARVTAVRKHLGDAVPLMVDANQQWDRPTAQRMCRIFEPFNLVWIEEPLDAYDHEGHAALALQFDTPIATGEMLTSAAEHGDLIRHRAADYLMPDAPRVGGITPFLKIASLAEHAGLMLAPHFAMELHVHLAAAYPREPWVEHFEWLEPLFNERIEIRDGRMLVPTRPGLGLTLSGQVKAWTREEAQVGTRPEGHHHHHH”: the “soluble on expression in E. coli” value was “soluble”.

“MPEFTNNPVAECDTVFSEKDGKKIVDFIIYPAKNGDQWVGTAVEAKSMGFGGELKVLVGFDAEGKIYNYSLLSHAETPGLGSKAADWFKEGNKGSIKGMNPGEQPLTVSKDGGQVDAITASTITSRAFLNAVNAAYGAYKGDGGANGTTGASQKAVQKSETAIVDSVVIKLEHHHHHH”: the “soluble on expression in E. coli” value was “soluble”.

Consider “RKADEGKWQLVGGDIQNAIVQNICMMDDNKIACEVFGTPNGVDGRTRVCVSDASVFDFEWYEDEIYGGLIFDTFFYSPWDKLLYAKFGGIMLRSKESFITSFISPTVVQGVDVYTLAGKIRIESETPVSEVLLFDLAGRMVLRQTIDNKIYSDIDTNGLKRSGIYVVSVRLSSGQVFSHKVQV”, for which the “soluble on expression in E. coli” value was “not soluble”.

In the case of “MRAVFRTDIGQIREHNEDSGGVFVNQSGQYLAVVADGMGGHRAGDVASSMAVAYLQERWEKESGLASPAEAEQWLKTQIASANEQLFRHALSHPECQGMGTTVVAAVCANSFATVAHIGDSRCYVLNKSGIQQLTDDHSLVNELVKSGQLSKEAAEHHPRKNVLLRALGTEPAVKIDVKTVALDEGDMLLLCSDGLSNKVPEADMIHILTGAGTLEEKAEALIQLANGRGGEDNISLAVIDVSAEREGG”, the “soluble on expression in E. coli” value is “not soluble”.

In the case of “MSLSDKIRIGMTVSSTGSFVLASQSGVRGVEVWVDDVNRRGGIEIKGKKYPVELVKLDDRSDKQMVTRVYERLIVDEKVDLVFAPFGSTLTAAAGTVTERLGKYMMVWSAASDDLYKQGFKYMVSGTQMPVSAMLRAPMALAGKLGVKKAAILYSDEPFPAGLADGGRAQAAKNGIDVVLYEKYPKGQKDFSTLLQKAKAAGADALVPTSYEGDLISMTRQMKQLDINFPYTFMVYASTPQFQAIGADSNYIFSHTNYHPAINWKVNAGLTREQFGKAYDTLFPKAEFPPDFQTALAYGAGALTEEIIKKAGATDAAALKQASMDLSDKVTVMAGPYAIDETGKQLQMPFPVVQLLPGKGMVPVYPEDVAVEKAVYPAPAWNKAKGIITITTDPNSSSVDKLAAALEHHHHHH”, the “soluble on expression in E. coli” value is “soluble”.

As to “MIKVDMTVDAKGLSCPMPIVRTKKAINELQPGQVLEVQATDKGSKADIKAWAESTGHQYLGTIEENGVLKHYIRKSAEHETRKETTFPHVVSNEELQEKLHDPDSFVLDVREPAEYAFGHIPGAVSIPLGELENRMAELPKDKTIYVVCRTGTRSDLAAQKLAEKGFDRVRNVIPGMSQWNGPLDSAQS”, the “soluble on expression in E. coli” value is “soluble”.

In the case of “GMTNHNNSGKKKVAILIEQAVEDTEFIIPCNGLKQAGFEVVVLGSRMNEKYKGKRGRLSTQADGTTTEAIASEFDAVVIPGGMAPDKMRRNPNTVRFVQEAMEQGKLVAAVCHGPQVLIEGDLLRGKQATGFIAISKDMMNAGADYLDEALVVDGNLITSREPGDLAIFTTAILSRLGYGGKDAALPDEKDRNAEWWKLADAWGGSTKGDIVRGLNTALGGERYSLEALEKYTEKESDVEAKALFQEMITNKQRHIEYLETYLTRLGEKPSLSANIANQYAKVKTALTGSDDIYQIRSALGDIQTGIGDIGNLCAMYTDPIATAIFKEIYKDLVKYEQRLVSLYRTRTNATVQPPKPTTGAAVSM”, the “soluble on expression in E. coli” value was “soluble”.

The values are drawn from the DeepSol protein solubility set.
